The target in data set [1] is T1, Sco5333 H228A (Streptomyces coelicolor, UniProt Q9ADD4 1-301, H228A).
T1 sequence: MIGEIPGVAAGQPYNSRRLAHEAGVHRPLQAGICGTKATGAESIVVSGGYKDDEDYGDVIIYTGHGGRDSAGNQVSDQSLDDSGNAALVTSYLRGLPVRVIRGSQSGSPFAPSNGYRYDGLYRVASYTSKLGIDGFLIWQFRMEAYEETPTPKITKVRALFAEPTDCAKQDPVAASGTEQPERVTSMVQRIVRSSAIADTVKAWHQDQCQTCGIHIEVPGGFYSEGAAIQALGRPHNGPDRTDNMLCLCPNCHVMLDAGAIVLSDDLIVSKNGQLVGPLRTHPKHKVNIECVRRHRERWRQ
As to the kind of experiment: EMSA.

Data set [2] addresses T2, Sco5333 G32A (Streptomyces coelicolor, UniProt Q9ADD4 1-301, G32A).
T2 sequence: T1 sequence with G32A, A228H
As to the kind of experiment: EMSA.

Data set [3] concerns the target T3, Sco5333 H253A (Streptomyces coelicolor, UniProt Q9ADD4 1-301, H253A).
T3 sequence: T1 sequence with A228H, H253A
As to the kind of experiment: EMSA.

For data set [4], the target named is MBD of mouse MeCP2 (mouse, UniProt Q9Z2D6 77-165). As to the kind of experiment: EMSA.
The target of data set [5] is T4, Sco5333 Y50A (Streptomyces coelicolor, UniProt Q9ADD4 1-301, Y50A).
T4 sequence: T1 sequence with Y50A, A228H
As to the kind of experiment: EMSA. Background: Mobility shift assays separate free from complexed probe on a gel.

Data set [6] deals with T5, Sco5333 (Streptomyces coelicolor, UniProt Q9ADD4 1-301).
T5 sequence: T1 sequence with A228H
The experiment in a line: ITC. (In general: In ITC the heat of successive injections is recorded.)

Data set [7] deals with MBD of human MeCP2 (human, UniProt P51608 77-166). As to the kind of experiment: EMSA.

Residue numbers refer to the chain shown, from its start.

What is called Kd is the constant that tells how readily two partners part at equilibrium. A low value points to higher affinity.

MBD of mouse MeCP2, sequence (Q9Z2D6 77-165): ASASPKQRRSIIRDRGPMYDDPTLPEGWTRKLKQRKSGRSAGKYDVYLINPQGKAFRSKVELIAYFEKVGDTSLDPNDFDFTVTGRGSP
MBD of human MeCP2, sequence (P51608 77-166): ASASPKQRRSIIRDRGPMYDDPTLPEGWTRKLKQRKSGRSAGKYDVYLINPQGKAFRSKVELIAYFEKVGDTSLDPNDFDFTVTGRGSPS

B1: 54nt fully methylated (54nt-1/3) (dsDNA)
DNA 1: GAAACCCGACAGGACTATAAAGATACCGGCGTTTCCCCCTGGAAGCTCCCTCGT
DNA 2: ACGAGGGAGCTTCCAGGGGGAAACGCCGGTATCTTTATAGTCCTGTCGGGTTTC
modifications: 5mC at strand 1 pos 27 and strand 2 pos 27
Take B1: the binding result in data set [1] is “binds”; in data set [2], “no binding”; in data set [3], “binds”; in data set [4], “binds”; in data set [5] it was “no binding”. This molecule also registered a Kd in data set [6] of 4.13 µM.

B2: 66nt non-methylated (66nt-2/4) (dsDNA)
DNA 1: AAAAACGGCGTTTCCGGGTTCCATAGGCTCCGCACCGGTCTCTGATGACCAGGGCATCACATTTTT
DNA 2: AAAAATGTGATGCCCTGGTCATCAGAGACCGGTGCGGAGCCTATGGAACCCGGAAACGCCGTTTTT
Regarding B2, the binding signal in data set [7] was 64 protein:DNA molar ratio for shift.

The record behind these values is publication PMC4333417 (Nucleic Acids Research, 2015).
